The source of these data is the supplement of paper PMC9112550, “Optimization of the antimicrobial peptide Bac7 by deep mutational scanning” (BMC Biology, 2022).

The series relates to Escherichia coli TOP10. In words: shrunken log2 fold change of peptide-encoding DNA abundance (4.5 h post-induction vs induction); higher = less antimicrobial activity (less host growth inhibition). As to conditions: time post-induction: 4.5 h; library: site-saturation at positions 5, 18, 19, 20.
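Also: peptides expressed intracellularly from a pBAD plasmid library in pooled LB shake-flask culture, induced with 0.3% L-arabinose, DNA abundance read by NGS, three biological replicates, DESeq2 with apeglm shrinkage.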

On to RRIRCRPPRLPRPRPRPCNLPRP, for which the “shrunken log2 fold change” value is -0.0646.

For RRIRARPPRLPRPRPRPMRCPRP, the “shrunken log2 fold change” value worked out at 0.162.

As for RRIRMRPPRLPRPRPRPLPPPRP, the “shrunken log2 fold change” value came out at 1.37.

For RRIRRRPPRLPRPRPRPHLGPRP, the “shrunken log2 fold change” value was -0.044.

Regarding RRIRDRPPRLPRPRPRPCTKPRP, the “shrunken log2 fold change” value was -0.0891.

Regarding RRIRDRPPRLPRPRPRPEHFPRP, the “shrunken log2 fold change” value was -0.138.

Consider RRIRERPPRLPRPRPRPPQGPRP, for which the “shrunken log2 fold change” value is 0.158.

RRIRTRPPRLPRPRPRPKKVPRP: the “shrunken log2 fold change” value is -0.282.

For RRIRERPPRLPRPRPRPWEEPRP, the “shrunken log2 fold change” value was -0.0572.

On to RRIRRRPPRLPRPRPRPCDEPRP, for which the “shrunken log2 fold change” value was 0.197.

For the sequence RRIRERPPRLPRPRPRPVETPRP, the “shrunken log2 fold change” value was -0.02.

For RRIRQRPPRLPRPRPRPIFEPRP, the “shrunken log2 fold change” value was -0.224.

Turning to RRIRLRPPRLPRPRPRPRPKPRP, the “shrunken log2 fold change” value worked out at 0.294.

As for RRIRPRPPRLPRPRPRPQTAPRP, the “shrunken log2 fold change” value came out at 0.111.

Turning to RRIRLRPPRLPRPRPRPEMKPRP, the “shrunken log2 fold change” value was -0.169.

Turning to RRIRFRPPRLPRPRPRPNCFPRP, the “shrunken log2 fold change” value is -0.193.

For RRIRWRPPRLPRPRPRPPIAPRP, the “shrunken log2 fold change” value was 2.1.

As to RRIRKRPPRLPRPRPRPMNRPRP, the “shrunken log2 fold change” value was -0.029.

Take RRIRQRPPRLPRPRPRPQGTPRP: the “shrunken log2 fold change” value was found to be 0.193.

Take RRIRCRPPRLPRPRPRPLPQPRP: the “shrunken log2 fold change” value amounted to 0.334.

For RRIRARPPRLPRPRPRPDGEPRP, the “shrunken log2 fold change” value turned out to be 0.209.

Take RRIRIRPPRLPRPRPRPPFMPRP: the “shrunken log2 fold change” value is -0.256.

Regarding RRIRCRPPRLPRPRPRPHIFPRP, the “shrunken log2 fold change” value was -1.15.

In the case of RRIRARPPRLPRPRPRPWEYPRP, the “shrunken log2 fold change” value is -0.00494.

RRIRLRPPRLPRPRPRPKEKPRP: the “shrunken log2 fold change” value was -0.0145.

RRIRPRPPRLPRPRPRPWHSPRP: the “shrunken log2 fold change” value was -0.134.

As for RRIRERPPRLPRPRPRPCPFPRP, the “shrunken log2 fold change” value is -1.04.

For the sequence RRIRCRPPRLPRPRPRPAQSPRP, the “shrunken log2 fold change” value stood at 0.345.

For the sequence RRIRIRPPRLPRPRPRPTLVPRP, the “shrunken log2 fold change” value turned out to be 0.0386.

Turning to RRIRHRPPRLPRPRPRPSSTPRP, the “shrunken log2 fold change” value is -0.741.

RRIRFRPPRLPRPRPRPQGQPRP: the “shrunken log2 fold change” value was -0.103.

Consider RRIRGRPPRLPRPRPRPPWSPRP, for which the “shrunken log2 fold change” value was found to be 0.76.

On to RRIRNRPPRLPRPRPRPHNVPRP, for which the “shrunken log2 fold change” value was -0.0343.

For RRIRIRPPRLPRPRPRPAFRPRP, the “shrunken log2 fold change” value came out at 2.17.

As for RRIRFRPPRLPRPRPRPPCYPRP, the “shrunken log2 fold change” value was -0.227.

As for RRIRSRPPRLPRPRPRPQNKPRP, the “shrunken log2 fold change” value is -0.561.

In the case of RRIRRRPPRLPRPRPRPCSLPRP, the “shrunken log2 fold change” value was determined as 0.00239.

Regarding RRIRDRPPRLPRPRPRPQYCPRP, the “shrunken log2 fold change” value was -0.207.

With RRIRRRPPRLPRPRPRPDLDPRP, the “shrunken log2 fold change” value was 0.67.

Turning to RRIRTRPPRLPRPRPRPYSGPRP, the “shrunken log2 fold change” value is -0.00196.

In the case of RRIRHRPPRLPRPRPRPCNWPRP, the “shrunken log2 fold change” value is -0.0331.

With RRIRMRPPRLPRPRPRPFYNPRP, the “shrunken log2 fold change” value was -0.141.

Consider RRIRVRPPRLPRPRPRPLGQPRP, for which the “shrunken log2 fold change” value came out at 0.131.

Turning to RRIRWRPPRLPRPRPRPWHWPRP, the “shrunken log2 fold change” value is -0.101.

Consider RRIRWRPPRLPRPRPRPWEWPRP, for which the “shrunken log2 fold change” value was -0.00895.

Regarding RRIRDRPPRLPRPRPRPIDAPRP, the “shrunken log2 fold change” value is -0.264.

RRIRHRPPRLPRPRPRPFNKPRP: the “shrunken log2 fold change” value was -0.01.

As for RRIRDRPPRLPRPRPRPPGAPRP, the “shrunken log2 fold change” value worked out at 0.564.

Regarding RRIRNRPPRLPRPRPRPFNKPRP, the “shrunken log2 fold change” value is -0.72.

On to RRIRPRPPRLPRPRPRPYSGPRP, for which the “shrunken log2 fold change” value was -0.524.

For the sequence RRIRLRPPRLPRPRPRPITKPRP, the “shrunken log2 fold change” value turned out to be 0.00247.

For the sequence RRIRERPPRLPRPRPRPKFSPRP, the “shrunken log2 fold change” value is -0.0396.

Take RRIRMRPPRLPRPRPRPNTCPRP: the “shrunken log2 fold change” value is -0.145.

On to RRIRIRPPRLPRPRPRPMTWPRP, for which the “shrunken log2 fold change” value is -0.0244.

RRIRTRPPRLPRPRPRPLKEPRP: the “shrunken log2 fold change” value was 0.825.

For the sequence RRIRVRPPRLPRPRPRPMVMPRP, the “shrunken log2 fold change” value is -0.0371.

Consider RRIRRRPPRLPRPRPRPIAYPRP, for which the “shrunken log2 fold change” value came out at 0.0129.

Turning to RRIRMRPPRLPRPRPRPVFQPRP, the “shrunken log2 fold change” value was determined as 0.168.

On to RRIRPRPPRLPRPRPRPDQWPRP, for which the “shrunken log2 fold change” value was -0.0215.

For the sequence RRIRTRPPRLPRPRPRPNPGPRP, the “shrunken log2 fold change” value was -0.0312.

Turning to RRIRLRPPRLPRPRPRPAKSPRP, the “shrunken log2 fold change” value was -0.0164.

As to RRIRRRPPRLPRPRPRPMPNPRP, the “shrunken log2 fold change” value is 0.129.

On to RRIRARPPRLPRPRPRPQVKPRP, for which the “shrunken log2 fold change” value was 0.136.

In the case of RRIRDRPPRLPRPRPRPAINPRP, the “shrunken log2 fold change” value was -0.117.

With RRIRDRPPRLPRPRPRPAETPRP, the “shrunken log2 fold change” value came to 0.0806.

For RRIRSRPPRLPRPRPRPSNDPRP, the “shrunken log2 fold change” value is -0.349.

As for RRIRCRPPRLPRPRPRPRNIPRP, the “shrunken log2 fold change” value was -0.33.

Regarding RRIRCRPPRLPRPRPRPFLCPRP, the “shrunken log2 fold change” value was -0.786.

As for RRIRWRPPRLPRPRPRPPSNPRP, the “shrunken log2 fold change” value came out at 0.133.

On to RRIRTRPPRLPRPRPRPEKKPRP, for which the “shrunken log2 fold change” value was found to be 0.0368.

As for RRIRARPPRLPRPRPRPLTLPRP, the “shrunken log2 fold change” value was 0.0472.

With RRIRRRPPRLPRPRPRPMMEPRP, the “shrunken log2 fold change” value was -0.0732.

In the case of RRIRTRPPRLPRPRPRPCEDPRP, the “shrunken log2 fold change” value is -0.0385.

As for RRIRRRPPRLPRPRPRPFVIPRP, the “shrunken log2 fold change” value is -0.0863.

For RRIRWRPPRLPRPRPRPHDQPRP, the “shrunken log2 fold change” value was found to be 0.36.

In the case of RRIRIRPPRLPRPRPRPITPPRP, the “shrunken log2 fold change” value is -0.421.

For the sequence RRIRGRPPRLPRPRPRPWQKPRP, the “shrunken log2 fold change” value came out at 0.09.

For the sequence RRIRLRPPRLPRPRPRPALPPRP, the “shrunken log2 fold change” value turned out to be 0.128.

Consider RRIRLRPPRLPRPRPRPQEGPRP, for which the “shrunken log2 fold change” value is 0.0327.

On to RRIRQRPPRLPRPRPRPYMFPRP, for which the “shrunken log2 fold change” value is -0.392.

On to RRIRLRPPRLPRPRPRPFQFPRP, for which the “shrunken log2 fold change” value is -0.255.

For the sequence RRIRGRPPRLPRPRPRPKGVPRP, the “shrunken log2 fold change” value came to 0.123.

Regarding RRIRLRPPRLPRPRPRPNLNPRP, the “shrunken log2 fold change” value is -0.716.

As to RRIRMRPPRLPRPRPRPGGSPRP, the “shrunken log2 fold change” value is 1.07.

As to RRIRNRPPRLPRPRPRPILPPRP, the “shrunken log2 fold change” value is -0.297.

For the sequence RRIRWRPPRLPRPRPRPNFAPRP, the “shrunken log2 fold change” value came to 0.29.

Take RRIRYRPPRLPRPRPRPRDQPRP: the “shrunken log2 fold change” value is -0.0852.

Take RRIRWRPPRLPRPRPRPMTLPRP: the “shrunken log2 fold change” value is -0.0611.

As to RRIRCRPPRLPRPRPRPIWRPRP, the “shrunken log2 fold change” value worked out at 0.285.

With RRIRTRPPRLPRPRPRPGSEPRP, the “shrunken log2 fold change” value was -0.0538.

As to RRIRRRPPRLPRPRPRPCVTPRP, the “shrunken log2 fold change” value was -0.0627.

Consider RRIRPRPPRLPRPRPRPGEWPRP, for which the “shrunken log2 fold change” value worked out at 0.214.

Consider RRIRLRPPRLPRPRPRPSTDPRP, for which the “shrunken log2 fold change” value was -0.356.

As to RRIRPRPPRLPRPRPRPGLMPRP, the “shrunken log2 fold change” value was found to be 0.184.

Regarding RRIRYRPPRLPRPRPRPFPLPRP, the “shrunken log2 fold change” value is -0.109.

RRIRARPPRLPRPRPRPPMWPRP: the “shrunken log2 fold change” value turned out to be 0.805.

Turning to RRIRQRPPRLPRPRPRPMIPPRP, the “shrunken log2 fold change” value is -0.0361.

On to RRIRVRPPRLPRPRPRPSPGPRP, for which the “shrunken log2 fold change” value was determined as 0.252.

For the sequence RRIRWRPPRLPRPRPRPRHLPRP, the “shrunken log2 fold change” value came to 0.11.

As to RRIRHRPPRLPRPRPRPFWDPRP, the “shrunken log2 fold change” value was -0.0244.

As to RRIRPRPPRLPRPRPRPYMEPRP, the “shrunken log2 fold change” value stood at 1.54.

In the case of RRIRFRPPRLPRPRPRPFPLPRP, the “shrunken log2 fold change” value is -0.289.

Take RRIRLRPPRLPRPRPRPDIFPRP: the “shrunken log2 fold change” value was -0.282.

Take RRIRVRPPRLPRPRPRPRRIPRP: the “shrunken log2 fold change” value was -0.0306.

For the sequence RRIRYRPPRLPRPRPRPMRWPRP, the “shrunken log2 fold change” value was determined as 0.448.

Regarding RRIRTRPPRLPRPRPRPRHVPRP, the “shrunken log2 fold change” value was 0.0629.

As for RRIRPRPPRLPRPRPRPNQGPRP, the “shrunken log2 fold change” value is -0.55.

As for RRIRPRPPRLPRPRPRPYSHPRP, the “shrunken log2 fold change” value was -1.42.

In the case of RRIRQRPPRLPRPRPRPDVQPRP, the “shrunken log2 fold change” value was -0.0191.

As to RRIRNRPPRLPRPRPRPCRSPRP, the “shrunken log2 fold change” value was -0.0607.

As for RRIRGRPPRLPRPRPRPFNHPRP, the “shrunken log2 fold change” value is -0.357.

Consider RRIRHRPPRLPRPRPRPDQNPRP, for which the “shrunken log2 fold change” value is -0.14.

With RRIRPRPPRLPRPRPRPTFHPRP, the “shrunken log2 fold change” value was found to be 0.0667.

As for RRIRERPPRLPRPRPRPWVRPRP, the “shrunken log2 fold change” value was -0.122.

As to RRIRGRPPRLPRPRPRPCMCPRP, the “shrunken log2 fold change” value came to 0.263.

Take RRIRCRPPRLPRPRPRPVFTPRP: the “shrunken log2 fold change” value is -0.211.

In the case of RRIRKRPPRLPRPRPRPRAEPRP, the “shrunken log2 fold change” value was found to be 0.632.

In the case of RRIRKRPPRLPRPRPRPDTPPRP, the “shrunken log2 fold change” value came out at 0.546.

On to RRIRERPPRLPRPRPRPRWMPRP, for which the “shrunken log2 fold change” value came to 0.0378.

Take RRIRFRPPRLPRPRPRPLSCPRP: the “shrunken log2 fold change” value was -0.73.

Turning to RRIRSRPPRLPRPRPRPDWYPRP, the “shrunken log2 fold change” value is -0.3.

On to RRIRKRPPRLPRPRPRPTAIPRP, for which the “shrunken log2 fold change” value came out at 0.444.

In the case of RRIRDRPPRLPRPRPRPKYNPRP, the “shrunken log2 fold change” value is -0.813.

Regarding RRIRLRPPRLPRPRPRPYDSPRP, the “shrunken log2 fold change” value came out at 0.00122.

For the sequence RRIRNRPPRLPRPRPRPYTVPRP, the “shrunken log2 fold change” value amounted to 0.0303.
